The values below come from US10508139B2, “Compound, use, anti-tumor pharmaceutical composition, gene construct for polypeptide expression, process for the production, process for the evaluation of tumor cells, method of sensitization of tumor cells to chemotherapeutic” (União Brasileira de Educaçâo e Assistência, mantendedora da …, priority 2012, dated 2019).

Assay [1] deals with B16F10 cells. Put plainly: Tumor growth of B16F10 cells transiently transfected with murine HspBP1 or HspBP1 (1-136). The assay is classed as in vivo, mice. The conditions noted are these: subcutaneous, monitored for 20 days. On the procedure:
Working with the possibility that human HspBP1 protein is recognized by the mouse immune system and that this is the reason for the tumor growth reduction, we decided to repeat the experiments using murine HspBP1. The B16F10 cells were transiently transfected with plasmid containing the sequence encoding the murine HspBP1 or […] as a control, and these cells were injected subcutaneously in the mouse thigh. Tumor growth was monitored for 20 days by measuring the volume of the thigh using a digital caliper.
B16F10 cells (5×10^5) were transiently transfected with pcDNA4/TO plasmid alone or containing the sequence encoding HspBP1 and HspBP1 (1-136) protein and, after 24 h, were injected subcutaneously into mice. A)—Quantification of tumor growth inhibition by HspBP1 after 20 days of tumor growth (Mann-Whitney test, p<0.05). B)—Tumor-bearing mice were photographed after 20 days of tumor growth. C)—Western blot analysis showing in vitro HspBP1 and truncated HspBP1 (1-136) expression on transfected cells.

In assay [2] the test system is activated caspase 3. In words: Ex vivo activated caspase 3 Western blot of treated tumors. Format: in vivo, mice. The conditions noted are these: tumor removed 24 hours after treatment, OVA control. On the procedure: We performed ex vivo tests to verify that HspBP1 treatment could activate caspase 3 in melanoma. 8×10^5 cells/animals were injected and after 3 days they were treated with HspBP1 FL, HspBP1 (1-136) or OVA. After 24 hours, the tumor was removed and analyzed for activated caspase 3 by Western blot (FIG. 5).
The 17 kDa band represents the marking of activated caspase 3.
Background: Immunoblotting shows a protein as a band on a membrane.

Assay [3] addresses T1, Hsp70 on the surface of the cells (Mus musculus, UniProt Q61696).
T1 construct: endogenous in cells; host or cells: B16F10 murine melanoma cells
In words: Binding to B16F10 cells analyzed by flow cytometry. Also noted: species or system murine. The conditions noted are these: B16F10 cells labeled 2 hours on ice. From the text:
Studies have shown that Hsp70 and HspBP1 can be secreted by tumor cells (Evdonin et al., 2009) and it is well established that Hsp70 is present in human serum (Pockley et al., 1998). Our laboratory has shown that breast cancer patients had twice the HspBP1 level in their serum compared to tumor-free individuals. Furthermore, breast tumors contained HspBP1 (and Hsp70) levels that were 4 times higher than the normal adjacent tissue (Souza et al., 2009).
Fc receptors were blocked using […], then the cells were labeled for 2 hours on ice with HspBP1 (FL) or HspBP1 (1-136). Cells were acquired on FACS Canto II cytometer (BD bioscience), and the data were analyzed using the FlowJo software (TreeStar).
Background: A flow cytometer gives signals particle by particle.

The subject of assay [4] is B16F10 cells. In words: Survival of transfected B16F10 cells after heat shock. Format: cell-based, murine. The conditions noted are these: overexpression in B16F10 cells, heat shock 42° C. for 1 h. On the procedure: When Hsp70 is silenced in B16F10 cells using siRNA and when we submit the cells to heat shock, there is a reduction in the number of viable cells in vitro (FIG. 3).
B—Western blot analysis of Hsp70 and actin expression in B16F10 cells, after silencing Hsp70 with siRNA. Cells were treated with control siRNA (lane 1) or Hsp70 siRNA (lane 2) and subsequently heat shocked at 42° C. for 2 hours, followed by a recovery of 37° C. for 4 h. C—Survival of B16F10 cells transiently transfected with pcDNA4/TO plasmid containing the murine HspBP1 sequence or pcDNA4/TO plasmid having murine HspBP1 (1-136) sequence; with or without heat shock at 42° C. for 1 h.

Assay [5] deals with B16F10 cells. In words: Intratumoral injection of recombinant protein in melanoma-bearing mice. The assay is classed as in vivo. The conditions noted are these: 40 ug intratumorally on days 3 and 6, monitored for 16 days, BSA control. As to the method: The recombinant form of the non-natural 1-136 peptide was produced. Then melanoma-bearing mice were treated with whole protein (FL) or only with said peptide. […] 3 and 6 days later, 40 ug HspBP1, BSA or truncated HspBP1 were intratumorally injected in 100 uL PBS. Tumor growth was monitored for 16 days. Tumor sizes were measured using a caliper. Tumor volume (V) (mm3) was calculated using V=d2×D×0.5, wherein d=smaller diameter and D=larger diameter.

Assay [6] relates to B16F10 cells. In words: Sensitization of B16F10 cells to hydrogen peroxide-induced death (MTT, annexin/propidium iodide). Format: cell-based, murine. The conditions noted are these: HspBP1 for 2 h, then hydrogen peroxide; MTT after 24 h or annexin/propidium iodide after 12 h. On the procedure: Since Hsp70 protects against death induced by oxidative stress—such as, for example, that induced in the treatment with hydrogen peroxide, we hypothesized that HspBP1 will sensitize tumors to death by oxidative stress, thereby enabling a tumor cell sensitization method to chemotherapeutic agents. HspBP1 was added at different concentrations with B16F10 cells cultured for 2h and then hydrogen peroxide was added. After 24 h and 12 h viability was assessed using MTT or by annexin and propidium iodide labeling to assess apoptotic cells. […] Viability was assessed using MTT after 24 hours (A) or by annexin and propidium iodide labeling after 12 h (B).

The subject of assay [7] is B16F10 cells. Put plainly: Chemo-sensitization of B16F10 cells to cisplatin (MTT). The assay is classed as cell-based, murine. The conditions noted are these: HspBP1 for 2 h, then cisplatin 160 ug/ml, 14 h. As to the method:
It was also assessed whether HspBP1 may enhance the effect of chemotherapeutic agents already used in clinical practice. The B16F10 cells were plated at a concentration of 4×10^3 cells per well in a 96 well plate in 200 ul 10% DMEM medium. After 24 h, HspBP1 was added at different concentrations in AIM-V medium, and cells were incubated for 2 h; then cisplatin was added at a concentration of 160 ug/ml. After 14 h cell viability was assessed using MTT.
The B16F10 cells were plated at a concentration of 4×10^3 cells per well in a 96 well plate in 200 ul 10% DMEM medium. After 24 h, HspBP1 was added at different concentrations in AIM-V medium, and cells were incubated for 2 h; then cisplatin was added at a concentration of 160 ug/ml. After 14 h, cell viability was assessed using MTT.

Assay [8] relates to B16F10 cells. Put plainly: Growth of HspBP1-overexpressing B16F10 tumors in WT and RAG-/- mice. The assay is classed as in vivo. The conditions noted are these: for tumor size vs vector control: 25 days of tumor growth. On the procedure:
One possibility is that the host immune system plays a role in in vivo tumor growth inhibition mediated by HspBP1. A comparison between wild WT mice (C57BL6/c) and immunodeficient mice (RAG−/−) was used to further explore the involvement of the immune system in tumor regression mediated by HspBP1 overexpression in B16F10 cells (FIG. 10).
Tumor volume (mm3) was measured after 25 days of tumor growth (Mann-Whitney test, p <0.05).

The subject of assay [9] is draining lymph nodes. In words: Draining lymph node analysis of tumors over-expressing HspBP1 (flow cytometry). Format: in vivo, mice. The conditions noted are these: 25 days of tumor growth. On the procedure:
Furthermore, activation of dendritic cells and the number of CD4 and CD8 T cells in draining lymph nodes of tumor-bearing mice transiently over-expressing HspBP1 was evaluated. […] A—Number of CD4+ or CD8+ T cells in draining lymph nodes. B—Number of CD11c+CD86+MHCII+ cells. C—Dot plot graph showing the frequency of CD11c+, CD86 +MHC-II+ dendritic cells.

In assay [10] the test system is GL, glioma cell line. Put plainly: Apoptosis in GL glioma cell line (Annexin V/iodide flow cytometry). Format: cell-based. The conditions noted are these: 10 or 20 ug for 24 hours, albumin control. On the procedure: In vitro assays were performed to verify whether HspBP1 could induce cell death in GL, glioma cell line. 5×10^5 cells were seeded per well in a 24 well plate. Then, cells were incubated with 10 or 20 ug HspBP1 or albumin for 24 hours in DMEM containing 1% fetal bovine serum. After 24 hours, the samples were analyzed by flow cytometry using the Annexin V/iodide kit (BD).

The subject of assay [11] is tumor. Put plainly: Intravenous injections in tumor bearing mice. The assay is classed as in vivo. The conditions noted are these: circulating levels increased through intravenous injections. From the text:
The invention therefore additionally provides a new in vivo experimental model for the development of new anti-tumor agents.

For assay [12], the system named is B16F10 cells. In words: Single HspBP1 treatment of B16F10 cells in culture. Format: cell-based, murine. The conditions noted are these: no added stressor.
For assay [13], the target named is Hsp70 ATPase activity (Homo sapiens, UniProt P0DMV8). The conditions noted are these: according to Raynes et al. (2003); cited from earlier work.
Hsp70 ATPase activity, sequence (P0DMV8 whole entry): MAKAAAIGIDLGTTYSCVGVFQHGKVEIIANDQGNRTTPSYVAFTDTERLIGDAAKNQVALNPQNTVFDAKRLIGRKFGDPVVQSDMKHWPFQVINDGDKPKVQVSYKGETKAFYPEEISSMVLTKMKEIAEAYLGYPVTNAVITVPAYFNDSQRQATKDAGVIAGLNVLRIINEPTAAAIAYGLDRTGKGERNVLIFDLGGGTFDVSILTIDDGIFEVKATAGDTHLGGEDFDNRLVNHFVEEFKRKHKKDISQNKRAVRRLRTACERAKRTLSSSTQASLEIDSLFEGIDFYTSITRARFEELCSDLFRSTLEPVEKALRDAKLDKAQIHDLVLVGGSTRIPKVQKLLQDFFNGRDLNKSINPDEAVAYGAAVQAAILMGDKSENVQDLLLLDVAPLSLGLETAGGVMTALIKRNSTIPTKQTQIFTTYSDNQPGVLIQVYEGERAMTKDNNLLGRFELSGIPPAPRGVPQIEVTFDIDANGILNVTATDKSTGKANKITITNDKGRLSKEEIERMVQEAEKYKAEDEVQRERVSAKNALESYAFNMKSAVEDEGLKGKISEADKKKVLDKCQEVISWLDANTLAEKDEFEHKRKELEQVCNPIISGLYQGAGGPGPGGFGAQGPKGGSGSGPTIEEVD
Assay [14] has as its system B16F10 cells. In words: Tetracycline-induced human HspBP1 overexpression in B16F10 tumors in mice. Format: in vivo. From the text: As part of the experimental strategy, a gene construct was designed and implemented for the Hsp70 binder expression, said construct being particularly useful for gene therapy for the treatment of mammalian tumors. Said gene construct comprises: • a sequence encoding a Hsp70 binding polypeptide; • a promoter sequence operatively linked to said encoding sequence; • said promoter and coding sequences being present on a vector or functional plasmid for expression of said polypeptide in prokaryotic or eukaryotic cells. In this context, a system was developed in which HspBP1 expression was regulated by the presence of tetracycline. B16F10 cells were stably transfected with pcDNA6/TR plasmid, the transfected clones were selected using antibiotic and then the cells were transfected with a plasmid containing the sequence encoding human HspBP1, or empty vector as a control. The HspBP1 increased expression was verified by adding tetracycline to the culture medium. […]
The B16F10 cells were stably transfected with pcDNA6/TR and pcDNA4/TO plasmids with or without the human HspBP1 sequence. […] Quantification of tumor growth inhibition by HspBP1 (Mann-Whitney test, /d/p<0.05). Tumor volume (V) was calculated using V=d2×D×0.5, where d=smaller diameter and D=larger diameter.

T1 sequence (Q61696 whole entry): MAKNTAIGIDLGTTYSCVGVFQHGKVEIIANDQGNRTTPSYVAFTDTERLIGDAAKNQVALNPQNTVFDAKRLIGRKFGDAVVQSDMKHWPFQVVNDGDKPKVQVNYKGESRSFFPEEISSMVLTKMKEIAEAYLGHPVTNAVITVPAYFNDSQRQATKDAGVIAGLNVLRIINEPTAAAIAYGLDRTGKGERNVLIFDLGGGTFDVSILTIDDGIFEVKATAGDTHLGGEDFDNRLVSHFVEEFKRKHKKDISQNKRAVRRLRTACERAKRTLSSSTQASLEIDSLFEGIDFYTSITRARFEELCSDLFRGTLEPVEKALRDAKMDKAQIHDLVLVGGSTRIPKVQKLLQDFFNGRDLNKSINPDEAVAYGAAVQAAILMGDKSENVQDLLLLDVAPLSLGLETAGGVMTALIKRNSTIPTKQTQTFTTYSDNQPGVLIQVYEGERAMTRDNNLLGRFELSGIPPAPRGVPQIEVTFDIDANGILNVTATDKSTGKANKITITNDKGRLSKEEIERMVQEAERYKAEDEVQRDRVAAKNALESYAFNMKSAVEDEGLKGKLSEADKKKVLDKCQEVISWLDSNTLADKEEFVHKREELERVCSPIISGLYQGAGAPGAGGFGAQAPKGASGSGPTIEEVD

Regarding “murine HspBP1: murine HspBP1 expressed in B16F10 cells from pcDNA4/TO plasmid; 94% identical to human form”, the tumor growth entry in assay [1] was “inhibits tumor growth”.

B1: truncated HspBP1: non-natural peptide corresponding to amino acids 1-136 of HspBP1 (protein)
chain: MADKGSGGSRLPLALPPASQGCSSGGSGSSAGGSGNPRPPRNLQGLLQMAITAGSQEPDPPPEPMSEERRQWLQEAMSAAFRGQREEVEQMKNCLRVLSQATPAMAGEAELATDQQEREGALELLADLCENMDNAA
B1: the tumor growth result in [1] is “also inhibits tumor growth”. Besides, the “apoptosis in vivo (activated caspase 3)” value in assay [2] is “inhibits tumor growth by inducing apoptosis in vivo”. Moreover, the “binding to the extracellular surface of tumor cells” value in [3] was “can bind to the extracellular surface of tumor cells”. In addition, the “cell survival after heat shock” value in assay [4] was “no changes occur in vitro”.

B2: HspBP1: Hsp70 binding co-chaperone protein, SEQ ID No: 1; species of the protein not always stated (protein, listed as Mus musculus)
chain: MADKGSGGSRLPLALPPASQGCSSGGSGSSAGGSGNPRPPRNLQGLLQMAITAGSQEPDPPPEPMSEERRQWLQEAMSAAFRGQREEVEQMKNCLRVLSQATPAMAGEAELATDQQEREGALELLADLCENMDNAA
Take B2: the tumor growth result in assay [5] was “Reduces Tumor Growth”; in assay [11] it was “tumor growth was reduced”. In addition, the “binding to the extracellular surface of tumor cells” value in [3] was “can bind to the extracellular surface of tumor cells”. Also, the “cell survival after heat shock” value in assay [4] is reported as “no changes occur in vitro”. Further, in assay [6], the “death induced by oxidative stress” value is “enhances death induced by oxidative stress”. In addition, the “effect on cisplatin-induced death (cell viability, MTT)” value in assay [7] is reported as “enhances the effect of cisplatin death”. Besides, the “tumor size vs vector control” value is given as “tendency to be smaller than tumors transfected with vector alone, although the difference was not significant” in [8] (RAG -/- mice) and “significantly smaller than tumors transfected only with the vector as a control” in [8] (WT mice (C57BL6/c)). Further, the “tumor size, WT vs RAG -/- mice” value in assay [8] (tumors expressing HspBP1) is recorded as “significantly smaller in WT than in RAG −/− mice”. In addition, the “T cell frequency in the draining lymph nodes” value in assay [9] (CD4 and CD8 T cells) was “no difference in T cell frequency”. Besides, the “activation of dendritic cells in the lymph node” value in [9] (CD11c+CD86+MHCII+ cells) is “trend in the activation of dendritic cells”. For the same molecule, the “frequency of apoptotic cells” value in assay [10] is listed as “increase in the frequency of apoptotic cells”. For the same molecule, in assay [12], the “anti-tumor effect in culture” value was “lack of an anti-tumor effect”. The “HspBP1/Hsp70 molar ratio resulting in 50% inhibition of Hsp70 ATPase activity” value in assay [13] is 4.0.

B3: human HspBP1: human HspBP1 expressed in B16F10 cells from a tetracycline-regulated plasmid (protein, UniProt Q9NZL4 1-359, looked up)
Hsp70-binding protein 1: MSDEGSRGSRLPLALPPASQGCSSGGGGGGSSAGGSGNSRPPRNLQGLLQMAITAGSEEPDPPPEPMSEERRQWLQEAMSAAFRGQREEVEQMKSCLRVLSQPMPPTAGEAEQAADQQEREGALELLADLCENMDNAADFCQLSGMHLLVGRYLEAGAAGLRWRAAQLIGTCSQNVAAIQEQVLGLGALRKLLRLLDRDACDTVRVKALFAISCLVREQEAGLLQFLRLDGFSVLMRAMQQQVQKLKVKSAFLLQNLLVGHPEHKGTLCSMGMVQQLVALVRTEHSPFHEHVLGALCSLVTDFPQGVRECREPELGLEELLRHRCQLLQQHEEYQEELEFCEKLLQTCFSSPADDSMDR
On to B3, for which the average tumor volume in assay [14] (B16F10 stably transfected, injected subcutaneously into thigh of mice, tetracycline in drinking water, control tumors 46.9 mm^3) was 2.07 mm^3. Moreover, the tumor growth result in assay [14] (induced human HspBP1 overexpression vs mice without tetracycline) was “clearly reduced”.
